Test results from patent US20260097129A1 (KOOKMIN UNIVERSITY INDUSTRY ACADEMY COOPERATION FOUNDATION, published 2026).

B1: K101.1-DM1 (antibody, V domains shown)
VH: EVQLLESGGGLVQPGGSLRLSCAASGFTFSNYSMSWVRQAPGKGLEWVSGIYYGSGNKYYADSVKGRFTISRDNSKNTLYLQMNSLRAEDTAVYYCAKNLASFDYWGQGTLVTVSS
VL: QSVLTQPPSASGTPGQRVTISCSGSSSNIGSNSVNWYQQLPGTAPKLLIYSNSHRPSGVPDRFSGSKSGTSASLAISGLRSEDEADYYCGTWDSSLSGYVFGGGTKLTVL
modifications: SMCC-DM1 conjugated to lysine residues of the antibody (positions not stated)
B2: K101.3-DM1 (antibody, V domains shown)
VH: EVQLLESGGGLVQPGGSLRLSCAASGFTFSGYAMSWVRQAPGKGLEWVSAISHGGSSKYYADSVKGRFTISRDNSKNTLYLQMNSLRAEDTAVYYCAKDLLSPLQSIGSYDDAMDVWGQGTLVTVSS
VL: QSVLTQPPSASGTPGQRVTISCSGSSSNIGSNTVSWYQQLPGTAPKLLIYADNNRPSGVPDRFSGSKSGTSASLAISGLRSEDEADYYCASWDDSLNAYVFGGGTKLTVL
modifications: SMCC-DM1 conjugated to lysine residues of the antibody (positions not stated)

Biological target: GRP94 on human CRC cells (HCT116, LoVo, HT29, HCT8) (human, UniProt P14625 22-803)
Assay: cell-based or functional assay

GRP94 on human CRC cells (HCT116, LoVo, HT29, HCT8), sequence (P14625 22-803): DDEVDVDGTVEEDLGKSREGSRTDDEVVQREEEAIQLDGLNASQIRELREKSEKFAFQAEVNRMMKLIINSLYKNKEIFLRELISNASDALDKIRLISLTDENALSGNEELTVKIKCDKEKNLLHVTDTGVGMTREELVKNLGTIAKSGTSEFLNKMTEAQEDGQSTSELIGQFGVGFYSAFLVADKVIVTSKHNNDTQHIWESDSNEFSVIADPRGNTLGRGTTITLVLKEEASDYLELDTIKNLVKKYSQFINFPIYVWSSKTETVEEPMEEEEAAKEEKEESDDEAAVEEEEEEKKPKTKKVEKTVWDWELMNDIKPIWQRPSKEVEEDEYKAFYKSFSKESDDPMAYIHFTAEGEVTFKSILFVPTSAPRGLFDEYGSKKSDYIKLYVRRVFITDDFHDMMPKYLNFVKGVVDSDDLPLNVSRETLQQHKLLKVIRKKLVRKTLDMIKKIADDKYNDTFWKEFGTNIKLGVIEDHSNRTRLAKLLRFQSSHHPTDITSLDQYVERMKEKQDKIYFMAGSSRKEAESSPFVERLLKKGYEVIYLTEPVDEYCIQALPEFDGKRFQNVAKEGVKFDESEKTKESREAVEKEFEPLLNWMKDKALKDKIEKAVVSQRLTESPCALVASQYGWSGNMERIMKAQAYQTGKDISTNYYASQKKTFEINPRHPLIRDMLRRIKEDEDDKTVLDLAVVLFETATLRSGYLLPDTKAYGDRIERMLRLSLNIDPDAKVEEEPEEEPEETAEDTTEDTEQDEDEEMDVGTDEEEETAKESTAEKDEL

Row | Binder | IC50 of cell viability (CCK-8), HCT8 cells [nM] | IC50 of cell viability (CCK-8), HCT116 cells [nM] | IC50 of cell viability (CCK-8), HT29 cells [nM] | IC50 of cell viability (CCK-8), LoVo cells [nM]
1 | B1 | 78.8 | 34.9 | 77.7 | 52.5
2 | B2 | 44.9 | 57.8 | 48.3 | 35.5
